Laboratory results: patent US20120225075A1 (LABRYS BIOLOGICS, published 2012)
Substitutions are numbered along the chain they refer to.

How the values were obtained:
[1] = molecular target: T1, N-LC-biotinylated human α-CGRP (human (the filing says that cynomolgus …, N-LC-biotinylated)); assay: SPR (Biacore 3000), Fab over N-biotin CGRP captured on SA chip, 25 °C
T1 construct: Captured on a streptavidin sensor chip; also called α-human/cyno; α-human
T1 peptide: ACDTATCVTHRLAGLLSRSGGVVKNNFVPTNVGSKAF
Description: (§1) Interaction analysis was conducted at 25° C. and at 37° C. on a Biacore 3000™ system equipped with streptavidin-coated (SA) sensor chips (Biacore AB, Uppsala, Sweden) using standard Biacore running buffers (HBS-P or HBS-EP). N-LC-biotinylated human and rat α- and β-CGRPs were captured on individual flow cells at low levels (typically 100 response units) to provide the reaction surfaces, while an unmodified flow cell served as a reference channel. Purified Fab fragments of antibodies G1 and G2 were generated. Typically, Fabs were prepared as a two-fold serial dilution using 0.5 μM as the top concentration and injected for 1-min at 100 μl/min allowing up to two hours for the dissociation time. Surfaces were regenerated with a mixture of 50% v/v ethanol+25 mM NaOH for G1 Fab and 2:1 v/v Pierce Gentle Elution Buffer/4M NaCl for G2 Fab. […] The binding responses were double-referenced and fit globally to a simple model using BiaEvaluation v. 4.0 software. Affinities were deduced from the quotient of the kinetic rate constants (KD=koff/kₒₙ).

[2] = molecular target: T2, N-LC-biotinylated human β-CGRP (human (the filing says that cynomolgus …, N-LC-biotinylated)); assay: as above
T2 construct: Captured on a streptavidin sensor chip; also called β-human/cyno; β-human
T2 peptide: T1 peptide with D3N, V22M, N25S
Description: as §1

[3] = molecular target: T3, N-LC-biotinylated rat α-CGRP (rat, N-LC-biotinylated); assay: as above
T3 construct: Captured on a streptavidin sensor chip; also called α-rat
T3 peptide: T1 peptide with A1S, D3N, N25D, K35E
Description: as §1

[4] = molecular target: T1, N-LC-biotinylated human α-CGRP; assay: SPR (Biacore 3000), Fab over N-biotin CGRP captured on SA chip, 37 °C
Description: as §1

[5] = molecular target: T3, N-LC-biotinylated rat α-CGRP; assay: as above
Description: as §1

[6] = molecular target: T4, N-LC-biotinylated rat β-CGRP (rat, N-LC-biotinylated (in the assay with CGRP on the chip)); assay: SPR, reverse orientation assay format (data not shown)
T4 construct: Captured on a streptavidin sensor chip for G1; also called β-rat
T4 peptide: T1 peptide with A1S, D3N, N25D

[7] = molecular target: T1, N-LC-biotinylated human α-CGRP; assay: SPR (Biacore 3000), Fab over N-biotin-CGRP captured on SA chip, 25 °C
Description: as §1

[8] = molecular target: T3, N-LC-biotinylated rat α-CGRP; assay: as above
Description: as §1

[9] = molecular target: T1, N-LC-biotinylated human α-CGRP; assay: SPR (Biacore 3000), Fab over N-biotin-CGRP captured on SA chip, 37 °C
Description: as §1

[10] = molecular target: T2, N-LC-biotinylated human β-CGRP; assay: as above
Description: as §1

[11] = molecular target: T3, N-LC-biotinylated rat α-CGRP; assay: as above
Description: as §1

[12] = molecular target: T4, N-LC-biotinylated rat β-CGRP; assay: as above
Description: as §1

[13] = molecular target: T4, N-LC-biotinylated rat β-CGRP; assay: SPR (Biacore 3000), Fab over N-biotin-CGRP captured on SA chip, 37 °C; 37 C; upper bound, 20-min dissociation
Description: as §1
The dissociation of G1 Fab from α-human, β-human, and […] occurs very slowly. As such, the offrate (koff) cannot be measured accurately unless the dissociation phase is monitored for a very long time. As a general rule-of-thumb, the binding response decays at least 5% over the allowed dissociation time for the report of an accurate offrate. […]

[14] = molecular target: T1, N-LC-biotinylated human α-CGRP; assay: SPR (Biacore 3000), side-by-side on the same chip at 37 °C, 20-min dissociation time; 37 C; side-by-side on the same chip; 20-min dissociation
Description: as §1
The results for antibody G1 are expressed in Table 1 below. […] Human and cynomolgus monkey have identical sequences; therefore, the human data also apply to cynomolgus.

[15] = molecular target: T1, N-LC-biotinylated human α-CGRP; assay: SPR (Biacore 3000), side-by-side on the same chip, 20-min dissociation time, 37 °C; 37 C; side-by-side on the same chip; 20-min dissociation; rounded figure for three CGRPs
Description: as §1
(§2) The dissociation of G1 Fab from α-human, β-human, and […] occurs very slowly. As such, the offrate (koff) cannot be measured accurately unless the dissociation phase is monitored for a very long time. As a general rule-of-thumb, the binding response decays at least 5% over the allowed dissociation time for the report of an accurate offrate. However, monitoring long dissociation times on the Biacore is hindered by baseline drift, which is particularly challenging when working at the low surface capacities required for kinetic analyses. […] As a result, the offrates for β-CGRPs cannot be resolved as accurately as those for α-CGRPs.

[16] = molecular target: T2, N-LC-biotinylated human β-CGRP; assay: as above
Description: as §1, §2

[17] = molecular target: T4, N-LC-biotinylated rat β-CGRP; assay: as above
Description: as §1, §2

125I-human α-CGRP = molecular target: T5, 125I-human α-CGRP (human, 125I label (position not given)); assay: competition radioligand binding: 125I-human α-CGRP on SK-N-MC cell membranes (CGRP1-receptor), 25 °C; IC50 given as binding sites (IgG value multiplied by 2); 25 C; radioligand competition on SK-N-MC membranes; whole IgG, IC50 said to be converted to binding sites
T5 peptide: T1 peptide
Description: A binding assay was performed to measure the IC₅₀ of anti-CGRP G1 antibody in blocking human α-CGRP from binding to the CGRP1-receptor. Membranes (25 μg) from SK-N-MC cells were incubated for 90 minutes at 25° C. in incubation buffer (50 mM Tris-HCl, pH 7.4, 5 mM MgCl₂, 0.1% BSA) containing […] ¹²⁵I-human α-CGRP and varying concentrations of anti-CGRP antibody (0.015 nM-33 nM) in a total volume of 1 ml. Incubation was terminated by filtration through a glass microfiber filter (GF/B, 1 μm) which had been blocked with 0.5% polyethylenimine. The protein-bound radioactivity was determined in a gamma counter.

B1: Fab fragment of antibody G2 (Fab, V domains shown)
VH: EVQLQQSGPELVKPGASVKMSCKASGYTFTSSVMHWVKQKPGQGLEWIGYINPYNDGTKYNEKFKGKATLTSDKSSSTAYMELSSLTSEDSAVYYCAKGGNDGYWGQGTTLTVSS
VL: EIVLTQSPTTMAASPGEKITITCSASSSISSIYLHWYQQKPGFSPKVLIYRASNLASGVPARFSGSGSGTSYSLTIGTMEAEDVATYYCQQGSTIPFTFGSGTKLEIKR
notes: also called G2 Fab; G2 antibody
For B1, the Kd [1] was 19100 pM, the “T1/2” value [1] was 10.1 min and the koff [1] was 0.00115 s⁻¹. The kon [1] was 60300 M⁻¹ s⁻¹, the Kd [2] was 19900 pM and the “T1/2” value [2] was 7.13 min. It also gave a koff [2] of 0.00162 s⁻¹, a kon [2] of 81400 M⁻¹ s⁻¹ and a Kd [3] of 900 pM. For the same binder, the “T1/2” value [3] was 54 min, the koff [3] was 0.000214 s⁻¹ and the kon [3] was 231000 M⁻¹ s⁻¹. For the same binder, the Kd [4] was 41900 pM, the “T1/2” value [4] was 2.96 min and the koff [4] was 0.0039 s⁻¹. For the same binder, the kon [4] was 93000 M⁻¹ s⁻¹, the Kd [5] was 3400 pM and the “T1/2” value [5] was 6.8 min. It also gave a koff [5] of 0.0017 s⁻¹ and a kon [5] of 500000 M⁻¹ s⁻¹.

B2: antibody G2 (form in the reverse orientation assay not stated) (antibody, V domains shown)
VH: B1 VH
VL: EIVLTQSPTTMAASPGEKITITCSASSSISSIYLHWYQQKPGFSPKVLIYRASNLASGVPARFSGSGSGTSYSLTIGTMEAEDVATYYCQQGSTIPFTFGSGTKLEIK
notes: Anti-rat CGRP mouse monoclonal antibody
B2: binds [6].

B3: Fab fragment of antibody G1 (Fab, V domains shown)
VH: EVQLVESGGGLVQPGGSLRLSCAASGFTFSNYWISWVRQAPGKGLEWVAEIRSESDASATHYAEAVKGRFTISRDNAKNSLYLQMNSLRAEDTAVYYCLAYFDYGLAIQNYWGQGTLVTVSS
VL: EIVLTQSPATLSLSPGERATLSCKASKRVTTYVSWYQQKPGQAPRLLIYGASNRYLGIPARFSGSGSGTDFTLTISSLEPEDFAVYYCSQSYNYPYTFGQGTKLEIK
notes: also called G1 Fab; G1 antibody
B3 was tested, and the “T1/2” value [7] was 1480 min, the koff [7] was 7.8e-06 s⁻¹ and the kon [7] was 186000 M⁻¹ s⁻¹. The “T1/2” value [8] was 187 min, the koff [8] was 6.18e-05 s⁻¹ and the kon [8] was 50800 M⁻¹ s⁻¹. For the same binder, the “T1/2” value [9] was 318 min, the koff [9] was 3.63e-05 s⁻¹ and the kon [9] was 587000 M⁻¹ s⁻¹. The Kd [10] was < 155 pM, the “T1/2” value [10] was 166 min and the koff [10] was < 6.98e-05 s⁻¹. The kon [10] was 451000 M⁻¹ s⁻¹, the “T1/2” value [11] was 28.8 min and the koff [11] was 0.000399 s⁻¹. For the same binder, the kon [11] was 155000 M⁻¹ s⁻¹, the Kd [12] was < 152 pM and the “T1/2” value [12] was 147 min. The koff [12] was < 7.85e-05 s⁻¹, the kon [12] was 516000 M⁻¹ s⁻¹ and the Kd [13] was < 150 pM. For the same binder, the Kd [14] was 163 pM, the Kd [15] was ~150 pM and the Kd [16] was ~150 pM. For the same binder, the Kd [17] was ~150 pM.

B4: anti-CGRP G1 antibody (whole IgG) (antibody, V domains shown)
VH: B3 VH
VL: EIVLTQSPATLSLSPGERATLSCKASKRVTTYVSWYQQKPGQAPRLLIYGASNRYLGIPARFSGSGSGTDFTLTISSLEPEDFAVYYCSQSYNYPYTFGQGTKLEIKR
notes: also called antibody G1; anti-CGRP antibody
For B4, the IC50 (125I-human α-CGRP) was 1800 pM.
